Test results: publication PMC11417181, “The SCR-17 and SCR-18 glycans in human complement factor H enhance its regulatory function” (The Journal of Biological Chemistry, 2024)
glycan = not defined here

B1: complement factor H, native glycosylated, full-length, purified from human plasma (natural protein, UniProt P08603 19-1231, looked up)
chain: EDCNELPPRRNTEILTGSWSDQTYPEGTQAIYKCRPGYRSLGNVIMVCRKGEWVALNPLRKCQKRPCGHPGDTPFGTFTLTGGNVFEYGVKAVYTCNEGYQLLGEINYRECDTDGWTNDIPICEVVKCLPVTAPENGKIVSSAMEPDREYHFGQAVRFVCNSGYKIEGDEEMHCSDDGFWSKEKPKCVEISCKSPDVINGSPISQKIIYKENERFQYKCNMGYEYSERGDAVCTESGWRPLPSCEEKSCDNPYIPNGDYSPLRIKHRTGDEITYQCRNGFYPATRGNTAKCTSTGWIPAPRCTLKPCDYPDIKHGGLYHENMRRPYFPVAVGKYYSYYCDEHFETPSGSYWDHIHCTQDGWSPAVPCLRKCYFPYLENGYNQNYGRKFVQGKSIDVACHPGYALPKAQTTVTCMENGWSPTPRCIRVKTCSKSSIDIENGFISESQYTYALKEKAKYQCKLGYVTADGETSGSITCGKDGWSAQPTCIKSCDIPVFMNARTKNDFTWFKLNDTLDYECHDGYESNTGSTTGSIVCGYNGWSDLPICYERECELPKIDVHLVPDRKKDQYKVGEVLKFSCKPGFTIVGPNSVQCYHFGLSPDLPICKEQVQSCGPPPELLNGNVKEKTKEEYGHSEVVEYYCNPRFLMKGPNKIQCVDGEWTTLPVCIVEESTCGDIPELEHGWAQLSSPPYYYGDSVEFNCSESFTMIGHRSITCIHGVWTQLPQCVAIDKLKKCKSSNLIILEEHLKNKKEFDHNSNIRYRCRGKEGWIHTVCINGRWDPEVNCSMAQIQLCPPPPQIPNSHNMTTTLNYRDGEKVSVLCQENYLIQEGEEITCKDGRWQSIPLCVEKIPCSQPPQIEHGTINSSRSSQESYAHGTKLSYTCEGGFRISEENETTCYMGKWSSPPQCEGLPCKSPPEISHGVVAHMSDSYQYGEEVTYKCFEGFGIDGPAIAKCLGEKWSHPPSCIKTDCLSLPSFENAIPMGEKKDVYKAGEQVTYTCATYYKMDGASNVTCINSRWTGRPTCRDTSCVNPPTVQNAYIVSRQMSKYPSGERVRYQCRSPYEMFGDEEVMCLNGNWTEPPQCKDSTGKCGPPPPIDNGDITSFPLSVYAPASSVEYQCQNLYQLEGNKRITCRNGQWSEPPKCLHPCVISREIMENYNIALRWTAKQKLYSRTGESVEFVCKRGYRLSSRSHTLRTTCWDGKLEYPTCAKR
modifications: eight N-linked biantennary complex-type glycans, among them those at Asn1011 (SCR-17) and Asn1077 (SCR-18)
notes: human complement factor H, 20 SCR domains, Tyr402 form; For the SPR self-association experiment the immobilised copy was biotinylated (EZ-Link Biotinylation kit) and captured on a streptavidin chip; the copy in solution was not labelled; also called CFH; native CFH
B2: fully deglycosylated complement factor H (200 h PNGase F) (natural protein, human, UniProt P08603 19-1231, looked up)
chain: B1 chain
modifications: N-linked glycans removed with PNGase F: eight, seven, six or five removed, leaving none, one, two or three glycans
notes: Mixture of forms with none to three glycans left; also called fully deglycosylated CFH; CFH-De; source: purified from human plasma, then PNGase F for 200 h at 37 °C, gel filtration
B3: partially deglycosylated complement factor H (100 h PNGase F) (natural protein, human, UniProt P08603 19-1231, looked up)
chain: B1 chain
modifications: N-linked glycans partly removed with PNGase F: forms with three to six glycan chains were present
notes: Mixture of glycoforms; also called partially deglycosylated CFH; CFH partially glycosylated; source: purified from human plasma, then PNGase F for 100 h at 37 °C, gel filtration
B4: SCR-16/18H, glycosylated three-domain fragment of complement factor H expressed in Pichia pastoris (domain or fragment)
chain: EGLPCKSPPEISHGVVAHMSDSYQYGEEVTYKCFEGFGIDGPAIAKCLGEKWSHPPSCIKTDCLSLPSFENAIPMGEKKDVYKAGEQVTYTCATYYKMDGASNVTCINSRWTGRPTCRDTSCVNPPTVQNAYIVSRQMSKYPSGERVRYQCRSPYEMFGDEEVMCLNGNWTEPPQCKDST
modifications: Pichia hyperglycosylated N-linked glycans at Asn1011 and Asn1077
B5: SCR-16/18H deglycosylated with PNGase F (domain or fragment)
chain: B4 chain
modifications: N-linked glycans at Asn1011 and Asn1077 treated with PNGase F (the paper suggests that removal may have been impeded)
B6: SCR-16/20, glycosylated five-domain C-terminal fragment of complement factor H expressed in Pichia pastoris (domain or fragment)
chain: EGLPCKSPPEISHGVVAHMSDSYQYGEEVTYKCFEGFGIDGPAIAKCLGEKWSHPPSCIKTDCLSLPSFENAIPMGEKKDVYKAGEQVTYTCATYYKMDGASNVTCINSRWTGRPTCRDTSCVNPPTVQNAYIVSRQMSKYPSGERVRYQCRSPYEMFGDEEVMCLNGNWTEPPQCKDSTGKCGPPPPIDNGDITSFPLSVYAPASSVEYQCQNLYQLEGNKRITCRNGQWSEPPKCLHPCVISREIMENYNIALRWTAKQKLYSRTGESVEFVCKRGYRLSSRSHTLRTTCWDGKLEYPTCAKR
modifications: Pichia hyperglycosylated N-linked glycans at Asn1011 and Asn1077
B7: SCR-16/20 deglycosylated with PNGase F (domain or fragment)
chain: B6 chain
modifications: N-linked glycans at Asn1011 and Asn1077 removed with PNGase F
B8: SCR-17H, glycosylated single-domain fragment of complement factor H expressed in Pichia pastoris (domain or fragment)
chain: IKTDCLSLPSFENAIPMGEKKDVYKAGEQVTYTCATYYKMDGASN(glycan)VTCINSRWTGRPTCRDTS
modifications: reading uncertain; also: N-linked hyperglycosylation (Pichia) at Asn1011, recombinant protein
B9: SCR-18H, glycosylated single-domain fragment of complement factor H expressed in Pichia pastoris (domain or fragment)
chain: RDTSCVNPPTVQNAYIVSRQMSKYPSGERVRYQCRSPYEMFGDEEVMCLNGN(glycan)WTEPPQCKDST
modifications: reading uncertain; also: N-linked hyperglycosylation (Pichia) at Asn1077, recombinant protein
B10: SCR-17/18H, glycosylated two-domain fragment of complement factor H expressed in Pichia pastoris (domain or fragment)
chain: IKTDCLSLPSFENAIPMGEKKDVYKAGEQVTYTCATYYKMDGASNVTCINSRWTGRPTCRDTSCVNPPTVQNAYIVSRQMSKYPSGERVRYQCRSPYEMFGDEEVMCLNGNWTEPPQCKDST
modifications: Pichia hyperglycosylated N-linked glycans (Man8-18GlcNAc2) at Asn1011 and Asn1077

Key:
complement C3b = biological target: T1, complement C3b (human, UniProt P01024 23-667; P01024 749-1663, free thiol group in C3b blocked with iodoacetamide (the paper does not say on which chain)); assay: SPR; Biacore X100, C3b amine-coupled to a CM5 chip, CFH preparations flowed at 0.05 to 7.75 μM, 25 °C, Hepes buffer with 0.005% Tween20, single-cycle, 1:1 steady-state affinity fit; details: both partners purified
T1 construct: Amine-coupled to a CM5 chip in the SPR experiment
T1 sequence (P01024 23-667, chain 1 of 2): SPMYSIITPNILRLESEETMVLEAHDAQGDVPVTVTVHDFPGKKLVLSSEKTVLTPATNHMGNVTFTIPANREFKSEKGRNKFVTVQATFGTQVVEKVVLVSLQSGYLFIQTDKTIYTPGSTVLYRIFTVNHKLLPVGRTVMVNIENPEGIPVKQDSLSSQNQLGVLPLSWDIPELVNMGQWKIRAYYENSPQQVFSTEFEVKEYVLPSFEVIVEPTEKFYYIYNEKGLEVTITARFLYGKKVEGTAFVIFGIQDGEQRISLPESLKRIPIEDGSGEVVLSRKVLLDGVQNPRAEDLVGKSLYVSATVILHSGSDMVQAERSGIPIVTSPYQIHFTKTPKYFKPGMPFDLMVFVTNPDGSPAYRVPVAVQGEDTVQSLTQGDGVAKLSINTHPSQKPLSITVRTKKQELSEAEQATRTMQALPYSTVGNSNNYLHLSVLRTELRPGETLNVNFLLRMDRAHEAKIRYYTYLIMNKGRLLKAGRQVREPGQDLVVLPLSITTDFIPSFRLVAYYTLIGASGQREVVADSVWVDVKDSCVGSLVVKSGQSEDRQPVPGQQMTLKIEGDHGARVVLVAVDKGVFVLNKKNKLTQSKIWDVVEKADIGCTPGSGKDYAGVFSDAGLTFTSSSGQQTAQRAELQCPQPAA
T1 sequence (P01024 749-1663, chain 2 of 2): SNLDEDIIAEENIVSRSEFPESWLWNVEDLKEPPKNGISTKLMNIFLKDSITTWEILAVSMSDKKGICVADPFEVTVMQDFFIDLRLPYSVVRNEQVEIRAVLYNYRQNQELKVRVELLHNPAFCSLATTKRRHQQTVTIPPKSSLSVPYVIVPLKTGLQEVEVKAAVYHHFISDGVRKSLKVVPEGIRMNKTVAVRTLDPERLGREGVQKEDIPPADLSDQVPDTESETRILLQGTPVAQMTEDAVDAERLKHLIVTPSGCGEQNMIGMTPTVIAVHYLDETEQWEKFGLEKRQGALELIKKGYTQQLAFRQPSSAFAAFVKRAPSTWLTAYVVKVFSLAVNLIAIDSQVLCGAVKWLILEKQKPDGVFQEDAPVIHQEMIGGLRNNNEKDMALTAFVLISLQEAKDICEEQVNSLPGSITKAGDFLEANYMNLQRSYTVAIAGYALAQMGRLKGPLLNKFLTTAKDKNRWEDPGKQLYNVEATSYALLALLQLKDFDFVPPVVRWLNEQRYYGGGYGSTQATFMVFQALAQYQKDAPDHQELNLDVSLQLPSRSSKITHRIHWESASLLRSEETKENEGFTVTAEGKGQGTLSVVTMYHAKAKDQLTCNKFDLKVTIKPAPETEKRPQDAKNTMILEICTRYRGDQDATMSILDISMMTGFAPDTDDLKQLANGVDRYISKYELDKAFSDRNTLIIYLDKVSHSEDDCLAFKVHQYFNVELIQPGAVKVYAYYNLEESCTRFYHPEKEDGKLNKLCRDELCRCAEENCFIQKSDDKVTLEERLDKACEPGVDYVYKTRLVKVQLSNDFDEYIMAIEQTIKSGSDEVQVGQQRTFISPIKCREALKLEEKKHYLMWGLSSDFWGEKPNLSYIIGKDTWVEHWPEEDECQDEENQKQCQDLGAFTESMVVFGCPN

[1] = biological target: the molecule itself; assay: AUC; sedimentation velocity of the SCR fragments, 20 °C, 50,000 rpm, Hepes buffer (10 mM Hepes, 137 mM NaCl, pH 7.4), c(s) analysis in SEDFIT, proportions of monomer and dimer from peak integration; monomer to dimer
[2] = biological target: the molecule itself; assay: as above; remark: listed apart in the source

Row | Kd (complement C3b) [µM] | Binder | stoichiometry N [1] | proportion of dimer [2] [%]
1 | 0.9 ± 0.06 | B1 | – | –
2 | 3.78 ± 0.45 | B2 | – | –
3 | 2.53 ± 0.42 | B3 | – | –
4 | – | B4 | 2 | 78
5 | – | B5 | 2 | 63
6 | – | B6 | 2 | 8
7 | – | B7 | 2 | 2
8 | – | B8 | 2 | 67
9 | – | B9 | 2 | 57
10 | – | B10 | 2 | 72
